Values of other authors, collected in patent US11937625B2, “Oral administration formulation of blueberry extract as a coadjuvant for preserving the health of human precorneal film” (CENTRO DE RETINA MEDICA Y QUIRURGICA, S.C., priority 2017, dated 2024).

Legend:
[1] = day 60; oral supplement; post-cataract surgery patients; control group 7.86 (±0.86) seconds
[2] = test system: pepsin; conditions: in mice; Nojima et al (2008)

Row | Molecule | fluorescein break-up time [1] | resistance to pepsin proteolysis [2]
1 | lactoferrin (protein, UniProt P02788 20-710, looked up) Lactotransferrin: GRRRSVQWCAVSQPEATKCFQWQRNMRKVRGPPVSCIKRDSPIQCIQAIAENRADAVTLDGGFIYEAGLAPYKLRPVAAEVYGTERQPRTHYYAVAVVKKGGSFQLNELQGLKSCHTGLRRTAGWNVPIGTLRPFLNWTGPPEPIEAAVARFFSASCVPGADKGQFPNLCRLCAGTGENKCAFSSQEPYFSYSGAFKCLRDGAGDVAFIRESTVFEDLSDEAERDEYELLCPDNTRKPVDKFKDCHLARVPSHAVVARSVNGKEDAIWNLLRQAQEKFGKDKSPKFQLFGSPSGQKDLLFKDSAIGFSRVPPRIDSGLYLGSGYFTAIQNLRKSEEEVAARRARVVWCAVGEQELRKCNQWSGLSEGSVTCSSASTTEDCIALVLKGEADAMSLDGGYVYTAGKCGLVPVLAENYKSQQSSDPDPNCVDRPVEGYLAVAVVRRSDTSLTWNSVKGKKSCHTAVDRTAGWNIPMGLLFNQTGSCKFDEYFSQSCAPGSDPRSNLCALCIGDEQGENKCVPNSNERYYGYTGAFRCLAENAGDVAFVKDVTVLQNTDGNNNEAWAKDLKLADFALLCLDGKRKPVTEARSCHLAMAPNHAVVSRMDKVERLKQVLLHQQAKFGRNGSDCPDKFCLFQSETKNLLFNDNTECLARLHGKTTYEKYLGPQYVAGITNLKKCSTSPLLEACEFLRK | 13.9 (±0.99) seconds | 
2 | mono-PEGylated lactoferrin: lactoferrin with covalent attachment of polyethylene glycol (PEG), synthesized by Nojima et al (2008) (conjugate, UniProt P02788 20-710, looked up, mono-PEGylated) Lactotransferrin: GRRRSVQWCAVSQPEATKCFQWQRNMRKVRGPPVSCIKRDSPIQCIQAIAENRADAVTLDGGFIYEAGLAPYKLRPVAAEVYGTERQPRTHYYAVAVVKKGGSFQLNELQGLKSCHTGLRRTAGWNVPIGTLRPFLNWTGPPEPIEAAVARFFSASCVPGADKGQFPNLCRLCAGTGENKCAFSSQEPYFSYSGAFKCLRDGAGDVAFIRESTVFEDLSDEAERDEYELLCPDNTRKPVDKFKDCHLARVPSHAVVARSVNGKEDAIWNLLRQAQEKFGKDKSPKFQLFGSPSGQKDLLFKDSAIGFSRVPPRIDSGLYLGSGYFTAIQNLRKSEEEVAARRARVVWCAVGEQELRKCNQWSGLSEGSVTCSSASTTEDCIALVLKGEADAMSLDGGYVYTAGKCGLVPVLAENYKSQQSSDPDPNCVDRPVEGYLAVAVVRRSDTSLTWNSVKGKKSCHTAVDRTAGWNIPMGLLFNQTGSCKFDEYFSQSCAPGSDPRSNLCALCIGDEQGENKCVPNSNERYYGYTGAFRCLAENAGDVAFVKDVTVLQNTDGNNNEAWAKDLKLADFALLCLDGKRKPVTEARSCHLAMAPNHAVVSRMDKVERLKQVLLHQQAKFGRNGSDCPDKFCLFQSETKNLLFNDNTECLARLHGKTTYEKYLGPQYVAGITNLKKCSTSPLLEACEFLRK |  | greater resistance
